{"source": "paper doi:10.1101/2021.03.12.434960", "about": "(bioRxiv, 2021)", "binders": {"B1": {"name": "human KLC1 with N-terminal 6xHis-FLAG (co-expressed with KIF5) (natural protein)", "chain": "MYDNMSTMVYIKEDKLEKLTQDEIISKTKQVIQGLEALKNEHNSILQSLLETLKCLKKDDESNLVEEKSNMIRKSLEMLELGLSEAQVMMALSNHLNAVESEKQKLRAQVRRLCQENQWLRDELANTQQKLQKSEQSVAQLEEEKKHLEFMNQLKKYDDDISPSEDKDTDSTKEPLDDLFPNDEDDPGQGIQQQHSSAAAAAQQGGYEIPARLRTLHNLVIQYASQGRYEVAVPLCKQALEDLEKTSGHDHPDVATMLNILALVYRDQNKYKDAANLLNDALAIREKTLGKDHPAVAATLNNLAVLYGKRGKYKEAEPLCKRALEIREKVLGKDHPDVAKQLNNLALLCQNQGKYEEVEYYYQRALEIYQTKLGPDDPNVAKTKNNLASCYLKQGKFKQAETLYKEILTRAHEREFGSVDDENKPIWMHAEEREECKGKQKDGTSFGEYGGWYKACKVDSPTVTTTLKNLGALYRRQGKFEAAETLEEAAMRSRKQGLDNVHKQRVAEVLNDPENMEKRRSRESLNVDVVKYESGPDGGEEVSMSVEWNGGVSGRASFCGKRQQQQWPGRRHR"}, "B2": {"name": "KLC1-CC (aa 1-200), N-terminal 6xHis-2xStrepII-sfGFP (domain or fragment)", "chain": "MYDNMSTMVYIKEDKLEKLTQDEIISKTKQVIQGLEALKNEHNSILQSLLETLKCLKKDDESNLVEEKSNMIRKSLEMLELGLSEAQVMMALSNHLNAVESEKQKLRAQVRRLCQENQWLRDELANTQQKLQKSEQSVAQLEEEKKHLEFMNQLKKYDDDISPSEDKDTDSTKEPLDDLFPNDEDDPGQGIQQQHSSAAA"}, "B3": {"name": "full-length human KIF5C, C-terminal mScarlet-StrepII (natural protein)", "chain": "MADPAECSIKVMCRFRPLNEAEILRGDKFIPKFKGDETVVIGQGKPYVFDRVLPPNTTQEQVYNACAKQIVKDVLEGYNGTIFAYGQTSSGKTHTMEGKLHDPQLMGIIPRIAHDIFDHIYSMDENLEFHIKVSYFEIYLDKIRDLLDVSKTNLAVHEDKNRVPYVKGCTERFVSSPEEVMDVIDEGKANRHVAVTNMNEHSSRSHSIFLINIKQENVETEKKLSGKLYLVDLAGSEKVSKTGAEGAVLDEAKNINKSLSALGNVISALAEGTKTHVPYRDSKMTRILQDSLGGNCRTTIVICCSPSVFNEAETKSTLMFGQRAKTIKNTVSVNLELTAEEWKKKYEKEKEKNKTLKNVIQHLEMELNRWRNGEAVPEDEQISAKDQKNLEPCDNTPIIDNIAPVVAGISTEEKEKYDEEISSLYRQLDDKDDEINQQSQLAEKLKQQMLDQDELLASTRRDYEKIQEELTRLQIENEAAKDEVKEVLQALEELAVNYDQKSQEVEDKTRANEQLTDELAQKTTTLTTTQRELSQLQELSNHQKKRATEILNLLLKDLGEIGGIIGTNDVKTLADVNGVIEEEFTMARLYISKMKSEVKSLVNRSKQLESAQMDSNRKMNASERELAACQLLISQHEAKIKSLTDYMQNMEQKRRQLEESQDSLSEELAKLRAQEKMHEVSFQDKEKEHLTRLQDAEEMKKALEQQMESHREAHQKQLSRLRDEIEEKQKIIDEIRDLNQKLQLEQEKLSSDYNKLKIEDQEREMKLEKLLLLNDKREQAREDLKGLEETVSRELQTLHNLRKLFVQDLTTRVKKSVELDNDDGGGSAAQKQKISFLENNLEQLTKVHKQLVRDNADLRCELPKLEKRLRATAERVKALESALKEAKENAMRDRKRYQQEVDRIKEAVRAKNMARRAHSAQIAKPIRPGHYPASSPTAVHAIRGGGGSSSNSTHYQK"}}, "key": {"[1]": {"molecular_target": "T1, full-length human KIF5A, C-terminal mScarlet-StrepII (human, UniProt Q12840 1-1032)", "T1 sequence": "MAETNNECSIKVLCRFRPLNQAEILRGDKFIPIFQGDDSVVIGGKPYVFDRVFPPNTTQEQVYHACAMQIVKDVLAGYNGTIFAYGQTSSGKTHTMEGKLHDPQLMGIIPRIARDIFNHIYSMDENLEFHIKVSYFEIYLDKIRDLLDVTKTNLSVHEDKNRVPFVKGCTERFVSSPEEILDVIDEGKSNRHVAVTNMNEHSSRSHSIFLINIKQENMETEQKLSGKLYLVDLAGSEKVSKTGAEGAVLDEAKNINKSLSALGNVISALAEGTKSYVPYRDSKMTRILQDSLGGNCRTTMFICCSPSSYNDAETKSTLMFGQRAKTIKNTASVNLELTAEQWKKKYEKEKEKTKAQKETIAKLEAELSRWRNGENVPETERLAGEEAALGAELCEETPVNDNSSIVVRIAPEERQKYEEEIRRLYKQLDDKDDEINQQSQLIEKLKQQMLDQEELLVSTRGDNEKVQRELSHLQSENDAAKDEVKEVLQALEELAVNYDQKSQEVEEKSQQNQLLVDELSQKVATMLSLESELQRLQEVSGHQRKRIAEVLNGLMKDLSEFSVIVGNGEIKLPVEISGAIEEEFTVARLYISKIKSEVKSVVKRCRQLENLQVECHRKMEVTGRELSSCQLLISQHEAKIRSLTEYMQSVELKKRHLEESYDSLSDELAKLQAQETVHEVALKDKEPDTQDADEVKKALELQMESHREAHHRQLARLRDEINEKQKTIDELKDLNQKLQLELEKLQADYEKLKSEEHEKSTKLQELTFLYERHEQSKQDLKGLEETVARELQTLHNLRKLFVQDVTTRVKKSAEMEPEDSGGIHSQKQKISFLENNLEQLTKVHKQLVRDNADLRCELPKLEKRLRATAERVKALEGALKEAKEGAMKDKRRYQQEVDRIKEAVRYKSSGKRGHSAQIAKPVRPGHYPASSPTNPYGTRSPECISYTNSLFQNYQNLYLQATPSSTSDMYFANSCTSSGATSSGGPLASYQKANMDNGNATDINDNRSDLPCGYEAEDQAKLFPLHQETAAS"}, "[2]": {"molecular_target": "T2, full-length human KIF5B, C-terminal mScarlet-StrepII (human, UniProt P33176 1-963)", "T2 sequence": "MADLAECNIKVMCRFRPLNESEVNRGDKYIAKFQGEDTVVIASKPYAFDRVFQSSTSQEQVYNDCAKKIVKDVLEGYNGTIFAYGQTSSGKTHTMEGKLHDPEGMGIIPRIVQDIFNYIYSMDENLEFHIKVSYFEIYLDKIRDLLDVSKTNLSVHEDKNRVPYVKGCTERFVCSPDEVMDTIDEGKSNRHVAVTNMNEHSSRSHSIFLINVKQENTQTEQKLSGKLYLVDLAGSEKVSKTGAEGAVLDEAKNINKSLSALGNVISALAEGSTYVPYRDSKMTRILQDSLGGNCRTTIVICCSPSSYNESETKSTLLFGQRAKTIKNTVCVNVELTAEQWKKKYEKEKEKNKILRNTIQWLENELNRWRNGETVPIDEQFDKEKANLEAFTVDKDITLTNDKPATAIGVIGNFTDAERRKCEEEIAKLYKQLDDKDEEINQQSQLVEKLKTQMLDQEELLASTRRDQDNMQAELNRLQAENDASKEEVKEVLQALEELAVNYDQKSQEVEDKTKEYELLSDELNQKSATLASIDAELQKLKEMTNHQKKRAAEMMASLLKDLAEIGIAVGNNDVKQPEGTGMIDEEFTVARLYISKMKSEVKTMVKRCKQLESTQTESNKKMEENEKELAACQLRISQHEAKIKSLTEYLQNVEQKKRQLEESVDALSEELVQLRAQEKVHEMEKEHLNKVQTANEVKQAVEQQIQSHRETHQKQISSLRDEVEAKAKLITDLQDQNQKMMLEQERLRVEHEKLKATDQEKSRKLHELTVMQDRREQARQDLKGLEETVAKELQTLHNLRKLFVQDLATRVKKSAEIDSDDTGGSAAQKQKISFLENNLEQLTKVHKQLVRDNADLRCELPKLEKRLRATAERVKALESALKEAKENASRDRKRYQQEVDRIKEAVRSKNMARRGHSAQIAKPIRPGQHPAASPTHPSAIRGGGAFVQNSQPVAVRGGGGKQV"}, "[3]": {"molecular_target": "B3"}, "[4]": {"molecular_target": "T3, KIF5B-Δhinge (Δ505-610), C-terminal mScarlet-StrepII (human, UniProt P33176 1-963, Δ505-610)", "T3 sequence": "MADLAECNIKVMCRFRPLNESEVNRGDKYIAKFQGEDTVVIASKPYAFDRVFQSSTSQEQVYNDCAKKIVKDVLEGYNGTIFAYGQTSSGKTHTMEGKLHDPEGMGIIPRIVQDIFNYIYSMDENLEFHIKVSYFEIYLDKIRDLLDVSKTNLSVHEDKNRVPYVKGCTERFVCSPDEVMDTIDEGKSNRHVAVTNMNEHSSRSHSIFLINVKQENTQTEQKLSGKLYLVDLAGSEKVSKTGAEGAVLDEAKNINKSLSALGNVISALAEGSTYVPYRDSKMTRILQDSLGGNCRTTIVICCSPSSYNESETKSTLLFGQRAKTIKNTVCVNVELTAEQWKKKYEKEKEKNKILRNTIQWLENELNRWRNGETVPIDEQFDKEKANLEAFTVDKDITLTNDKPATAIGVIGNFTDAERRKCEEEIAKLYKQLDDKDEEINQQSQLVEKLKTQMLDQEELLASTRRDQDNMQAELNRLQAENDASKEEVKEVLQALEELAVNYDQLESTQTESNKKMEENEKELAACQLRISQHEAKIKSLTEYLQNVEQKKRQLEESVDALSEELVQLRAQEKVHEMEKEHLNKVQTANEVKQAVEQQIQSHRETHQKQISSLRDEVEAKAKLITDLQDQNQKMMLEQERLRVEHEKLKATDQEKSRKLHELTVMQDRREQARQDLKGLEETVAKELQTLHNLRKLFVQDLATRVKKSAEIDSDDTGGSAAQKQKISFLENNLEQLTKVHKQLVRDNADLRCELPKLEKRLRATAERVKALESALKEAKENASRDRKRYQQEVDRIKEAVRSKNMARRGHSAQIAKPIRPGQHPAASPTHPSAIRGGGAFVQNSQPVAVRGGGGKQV", "assay": "TIRF microscopy on surface-bound microtubules"}, "SEC-MALS": {"molecular_target": "the molecule itself", "assay": "SEC-MALS"}}}
{"binder": "B1", "values": [{"measurement": "stoichiometry N", "setting": "[1]", "value": "~0.8", "unit": "KLC1 per KHC"}, {"measurement": "stoichiometry N", "setting": "[2]", "value": "~0.8", "unit": "KLC1 per KHC"}, {"measurement": "stoichiometry N", "setting": "[3]", "value": "~0.8", "unit": "KLC1 per KHC"}]}
{"binder": "B2", "values": [{"measurement": "binding result", "setting": "[4]", "value": "binds"}]}
{"binder": "B3", "values": [{"measurement": "stoichiometry N", "setting": "SEC-MALS", "value": 2}]}
